Data as given in patent US20250352667A1.
Each block holds one binder with its values, some of them ahead of it.

What was measured:
[1] = molecular target: KEAP1 (wild-type full-length), His-tagged (human) (UniProt Q14145); experiment: AlphaScreen; 9.6 nM FLAG-NRF2, 150 nM His-KEAP1; Rep 1; control for I28V
[2] = molecular target: KEAP1 (wild-type full-length), His-tagged (human) (UniProt Q14145); experiment: AlphaScreen; 307.2 nM FLAG-NRF2, 150 nM His-KEAP1; Rep 2; control for I86V
[3] = molecular target: KEAP1 (wild-type full-length), His-tagged (human) (UniProt Q14145); experiment: AlphaScreen; 9.6 nM FLAG-NRF2, 150 nM His-KEAP1; Repeat 2 (same value as in Table 26)
[4] = molecular target: KEAP1 (wild-type full-length), His-tagged (human) (UniProt Q14145); experiment: AlphaScreen; 38.4 nM FLAG-NRF2, 150 nM His-KEAP1 (same value as in Table 26)
[5] = molecular target: KEAP1 (wild-type full-length), His-tagged (human) (UniProt Q14145); experiment: AlphaScreen; NRF2 wt isoform 1 19.2 nM, KEAP1 150 nM; set as the 100 % reference for I86V
[6] = molecular target: KEAP1 (wild-type full-length), His-tagged (human) (UniProt Q14145); experiment: AlphaScreen; 2.4 nM FLAG-NRF2, 150 nM His-KEAP1; Rep 1; control for I86V
[7] = molecular target: KEAP1 (wild-type full-length), His-tagged (human) (UniProt Q14145); experiment: AlphaScreen; 38.4 nM FLAG-NRF2, 150 nM His-KEAP1; signal against NRF2 only; control for I28V
[8] = molecular target: KEAP1 (wild-type full-length), His-tagged (human) (UniProt Q14145); experiment: AlphaScreen, all variants on one plate; average of three conditions, KEAP1 150 nM; the reference itself
[9] = molecular target: KEAP1 (wild-type full-length), His-tagged (human) (UniProt Q14145); experiment: AlphaScreen; 9.6 nM FLAG-NRF2, 150 nM His-KEAP1; Rep 1; control for I86V
[10] = molecular target: KEAP1 (wild-type full-length), His-tagged (human) (UniProt Q14145); experiment: AlphaScreen; 19.2 nM FLAG-NRF2, 150 nM His-KEAP1; signal against NRF2 only; control for I86V
[11] = molecular target: KEAP1 (wild-type full-length), His-tagged (human) (UniProt Q14145); experiment: AlphaScreen; NRF2 wt isoform 1 38.4 nM, KEAP1 150 nM; signal against NRF2-only control; control for I86V
[12] = molecular target: KEAP1 (wild-type full-length), His-tagged (human) (UniProt Q14145); experiment: AlphaScreen; FLAG-NRF2 wt isoform 1 38.4 nM, His-KEAP1 150 nM; Rep 1; positive control for Q75R
[13] = molecular target: KEAP1 (wild-type full-length), His-tagged (human) (UniProt Q14145); experiment: AlphaScreen; NRF2 wt isoform 1 9.6 nM, KEAP1 150 nM; signal against NRF2-only control; control for I86V
[14] = molecular target: KEAP1 (wild-type full-length), His-tagged (human) (UniProt Q14145); experiment: AlphaScreen; 153.6 nM FLAG-NRF2, 150 nM His-KEAP1; signal against NRF2 only; control for I28V
[15] = molecular target: KEAP1 (wild-type full-length), His-tagged (human) (UniProt Q14145); experiment: AlphaScreen; FLAG-NRF2 Q75R 153.6 nM, His-KEAP1 150 nM; Rep 1
[16] = molecular target: KEAP1 (wild-type full-length), His-tagged (human) (UniProt Q14145); experiment: AlphaScreen; FLAG-NRF2 Q75R 4.8 nM, His-KEAP1 150 nM; Rep 2
[17] = molecular target: KEAP1 (wild-type full-length), His-tagged (human) (UniProt Q14145); experiment: AlphaScreen; NRF2 Q75R 4.8 nM, KEAP1 150 nM; signal against NRF2-only control
[18] = molecular target: KEAP1 (wild-type full-length), His-tagged (human) (UniProt Q14145); experiment: AlphaScreen; NRF2 Q75R 9.6 nM, KEAP1 150 nM; relative to wild-type NRF2 isoform 1 (100 %)
[19] = molecular target: KEAP1 (wild-type full-length), His-tagged (human) (UniProt Q14145); experiment: AlphaScreen; FLAG-NRF2 I86V 614.4 nM, His-KEAP1 150 nM; Rep 3
[20] = molecular target: KEAP1 (wild-type full-length), His-tagged (human) (UniProt Q14145); experiment: AlphaScreen; FLAG-NRF2 I86V 614.4 nM, His-KEAP1 150 nM; Rep 1
[21] = molecular target: KEAP1 (wild-type full-length), His-tagged (human) (UniProt Q14145); experiment: AlphaScreen; NRF2 I86V 307.2 nM, KEAP1 150 nM; signal against NRF2-only control
[22] = molecular target: KEAP1 (wild-type full-length), His-tagged (human) (UniProt Q14145); experiment: AlphaScreen; NRF2 I86V 19.2 nM, KEAP1 150 nM; relative to wild-type NRF2 isoform 1 (100 %)
[23] = molecular target: KEAP1 (wild-type full-length), His-tagged (human) (UniProt Q14145); experiment: AlphaScreen; FLAG-NRF2 I86V 307.2 nM, His-KEAP1 150 nM; Rep 1
[24] = molecular target: KEAP1 (wild-type full-length), His-tagged (human) (UniProt Q14145); experiment: AlphaScreen; NRF2 I86V 153.6 nM, KEAP1 150 nM; signal against NRF2-only control
[25] = molecular target: KEAP1 (wild-type full-length), His-tagged (human) (UniProt Q14145); experiment: AlphaScreen; 19.2 nM FLAG-NRF2, 150 nM His-KEAP1; Repeat 1 (same value as in Table 27)
[26] = molecular target: KEAP1 (wild-type full-length), His-tagged (human) (UniProt Q14145); experiment: AlphaScreen; 2.4 nM FLAG-NRF2, 150 nM His-KEAP1; Rep 1
[27] = molecular target: KEAP1 (wild-type full-length), His-tagged (human) (UniProt Q14145); experiment: AlphaScreen; mean over 9.6, 19.2 and 38.4 nM NRF2; 150 nM His-KEAP1; against wild-type NRF2 isoform 1

KEAP1 (wild-type full-length), His-tagged (human), sequence (Q14145 2-624 limits assumed): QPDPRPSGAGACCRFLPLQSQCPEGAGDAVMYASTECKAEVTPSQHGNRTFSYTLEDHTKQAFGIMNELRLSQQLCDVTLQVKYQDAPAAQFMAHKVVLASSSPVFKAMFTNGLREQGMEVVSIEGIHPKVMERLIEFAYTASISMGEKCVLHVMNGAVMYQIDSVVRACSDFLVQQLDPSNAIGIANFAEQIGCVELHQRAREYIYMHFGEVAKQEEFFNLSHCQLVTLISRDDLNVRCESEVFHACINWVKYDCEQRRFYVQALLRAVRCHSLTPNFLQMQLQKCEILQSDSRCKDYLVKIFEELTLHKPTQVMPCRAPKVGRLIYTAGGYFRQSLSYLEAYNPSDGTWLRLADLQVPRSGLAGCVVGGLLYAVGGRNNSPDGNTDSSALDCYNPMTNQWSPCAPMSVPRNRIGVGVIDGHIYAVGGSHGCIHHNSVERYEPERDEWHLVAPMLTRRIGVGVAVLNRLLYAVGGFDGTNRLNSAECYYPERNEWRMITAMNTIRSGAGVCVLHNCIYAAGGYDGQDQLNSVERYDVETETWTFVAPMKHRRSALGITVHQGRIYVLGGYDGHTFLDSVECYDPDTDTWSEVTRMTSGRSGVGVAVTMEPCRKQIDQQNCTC

B3: NRF2 isoform 1 (I86V full-length), FLAG-tagged (protein)
chain: MMDLELPPPGLPSQQDMDLIDILWRQDIDLGVSREVFDFSQRRKEYELEKQKKLEKERQEQLQKEQEKAFFAQLQLDEETGEFLPVQPAQHIQSETSGSANYSQVAHIPKSDALYFDDCMQLLAQTFPFVDDNEVSSATFQSLVPDIPGHIESPVFIATNQAQSPETSVAQVAPVDLDGMQQDIEQVWEELLSIPELQCLNIENDKLVETTMVPSPEAKLTEVDNYHFYSSIPSMEKEVGNCSPHFLNAFEDSFSSILSTEDPNQLTVNSLNSDATVNTDFGDEFYSAFIAEPSISNSMPSPATLSHSLSELLNGPIDVSDLSLCKAFNQNHPESTAEFNDSDSGISLNTSPSVASPEHSVESSSYGDTLLGLSDSEVEELDSAPGSVKQNGPKTPVHSSGDMVQPLSPSQGQSTHVHDAQCENTPEKELPVSPGHRKTPFTKDKHSSRLEAHLTRDELRAKALHIPFPVEKIINLPVVDFNEMMSKEQFNEAQLALIRDIRRRGKNKVAAQNCRKRKLENIVELEQDLDHLKDEKEKLLKEKGENDKSLHLLKKQLSTLYLEVFSMLRDEDGKPYSPSEYSLQQTRDGNVFLVPKSKKPDVKKN
A-counts (NRF2 plus KEAP1) [19]: 1920 A-counts
A-counts (NRF2 plus KEAP1) [20]: 2000 A-counts
S/N [21]: 1.3
Binding Percentage [22]: 97.8%
A-counts (NRF2 plus KEAP1) [23]: 2210 A-counts
S/N [24]: 2

B4: NRF2 isoform 1 (I28V full-length), FLAG-tagged (protein)
chain: MMDLELPPPGLPSQQDMDLIDILWRQDVDLGVSREVFDFSQRRKEYELEKQKKLEKERQEQLQKEQEKAFFAQLQLDEETGEFLPIQPAQHIQSETSGSANYSQVAHIPKSDALYFDDCMQLLAQTFPFVDDNEVSSATFQSLVPDIPGHIESPVFIATNQAQSPETSVAQVAPVDLDGMQQDIEQVWEELLSIPELQCLNIENDKLVETTMVPSPEAKLTEVDNYHFYSSIPSMEKEVGNCSPHFLNAFEDSFSSILSTEDPNQLTVNSLNSDATVNTDFGDEFYSAFIAEPSISNSMPSPATLSHSLSELLNGPIDVSDLSLCKAFNQNHPESTAEFNDSDSGISLNTSPSVASPEHSVESSSYGDTLLGLSDSEVEELDSAPGSVKQNGPKTPVHSSGDMVQPLSPSQGQSTHVHDAQCENTPEKELPVSPGHRKTPFTKDKHSSRLEAHLTRDELRAKALHIPFPVEKIINLPVVDFNEMMSKEQFNEAQLALIRDIRRRGKNKVAAQNCRKRKLENIVELEQDLDHLKDEKEKLLKEKGENDKSLHLLKKQLSTLYLEVFSMLRDEDGKPYSPSEYSLQQTRDGNVFLVPKSKKPDVKKN
A-counts [25]: 1730 A-counts
A-counts [26]: 697 A-counts
Avg. Reduction in Binding [27]: 30.2%

The next lines start with the values.

A-counts [1]: 1590 A-counts
A-counts [2]: 2790 A-counts
A-counts [3]: 1640 A-counts
S/N [4]: 3.6
Binding Percentage [5]: 100%
A-counts [6]: 860 A-counts
S/N [7]: 3.6
% Disruption in Binding (Reported Values) [8]: 0%
A-counts [9]: 2640 A-counts
S/N [10]: 4.1
S/N [11]: 3
A-counts (NRF2 plus KEAP1) [12]: 1480 A-counts
S/N [13]: 3.6
S/N [14]: 1.9
B1: NRF2 isoform 1 (wild-type full-length), FLAG-tagged (protein)
chain: MMDLELPPPGLPSQQDMDLIDILWRQDIDLGVSREVFDFSQRRKEYELEKQKKLEKERQEQLQKEQEKAFFAQLQLDEETGEFLPIQPAQHIQSETSGSANYSQVAHIPKSDALYFDDCMQLLAQTFPFVDDNEVSSATFQSLVPDIPGHIESPVFIATNQAQSPETSVAQVAPVDLDGMQQDIEQVWEELLSIPELQCLNIENDKLVETTMVPSPEAKLTEVDNYHFYSSIPSMEKEVGNCSPHFLNAFEDSFSSILSTEDPNQLTVNSLNSDATVNTDFGDEFYSAFIAEPSISNSMPSPATLSHSLSELLNGPIDVSDLSLCKAFNQNHPESTAEFNDSDSGISLNTSPSVASPEHSVESSSYGDTLLGLSDSEVEELDSAPGSVKQNGPKTPVHSSGDMVQPLSPSQGQSTHVHDAQCENTPEKELPVSPGHRKTPFTKDKHSSRLEAHLTRDELRAKALHIPFPVEKIINLPVVDFNEMMSKEQFNEAQLALIRDIRRRGKNKVAAQNCRKRKLENIVELEQDLDHLKDEKEKLLKEKGENDKSLHLLKKQLSTLYLEVFSMLRDEDGKPYSPSEYSLQQTRDGNVFLVPKSKKPDVKKN

A-counts (NRF2 plus KEAP1) [15]: 1070 A-counts
A-counts (NRF2 plus KEAP1) [16]: 819 A-counts
S/N [17]: 2.3
Binding Percentage [18]: 72.4%
B2: NRF2 isoform 1 (Q75R full-length), FLAG-tagged (protein)
chain: MMDLELPPPGLPSQQDMDLIDILWRQDIDLGVSREVFDFSQRRKEYELEKQKKLEKERQEQLQKEQEKAFFAQLRLDEETGEFLPIQPAQHIQSETSGSANYSQVAHIPKSDALYFDDCMQLLAQTFPFVDDNEVSSATFQSLVPDIPGHIESPVFIATNQAQSPETSVAQVAPVDLDGMQQDIEQVWEELLSIPELQCLNIENDKLVETTMVPSPEAKLTEVDNYHFYSSIPSMEKEVGNCSPHFLNAFEDSFSSILSTEDPNQLTVNSLNSDATVNTDFGDEFYSAFIAEPSISNSMPSPATLSHSLSELLNGPIDVSDLSLCKAFNQNHPESTAEFNDSDSGISLNTSPSVASPEHSVESSSYGDTLLGLSDSEVEELDSAPGSVKQNGPKTPVHSSGDMVQPLSPSQGQSTHVHDAQCENTPEKELPVSPGHRKTPFTKDKHSSRLEAHLTRDELRAKALHIPFPVEKIINLPVVDFNEMMSKEQFNEAQLALIRDIRRRGKNKVAAQNCRKRKLENIVELEQDLDHLKDEKEKLLKEKGENDKSLHLLKKQLSTLYLEVFSMLRDEDGKPYSPSEYSLQQTRDGNVFLVPKSKKPDVKKN
